Km, kcat and kcat/Km data for one substance are collected here from patent US20050207981A1, “Compositions and methods for determining substrate specificity of hydrolytic enzymes” (The Regents of the University of California, priority 2003, published 2005).

This data set relates to C[C@H](NC(=O)[C@H](C)NC(=O)[C@H](CCCNC(=N)N)NC(=O)[C@H](CCCNC(=N)N)NC(=O)c1cc(F)ccc1O)C(N)=O. In words: purified protein, by the assay type. To be noted: other: detailed kinetic analysis of substrate hydrolysis; pH 8.0; 25.0 °C.

Experimental: The combinatorial tetrapeptide library thus obtained was used to assay the substrate specificity of bovine p-chymotrypsin as follows. A 1 μL aliquot of each library member in DMSO was diluted to 100 μL in one well of a black polystyrene 96-well plate with a solution containing 50 mM Tris-HCl pH 8.0, 100 mM NaCl, 20 mM CaCl2, 10 μM [Tb(EDTA)]+and 10 μM enzyme. The resulting mixture was allowed to react at 25° C. for 30 min. Hydrolysis was followed by observing the increase in fluorescence at 546 nm upon excitation at 250 nm.
To elucidate any cooperativity between subsites, a series of single substrates was synthesized and assayed with chymotrypsin. […] Peptide sequences were designed to compare the most reactive amino acid in each sublibrary (Arg) with an amino acid with moderate reactivity and neutral functionality (Ala). Alanine, a small, neutral amino acid, was included in the P4′ position in all peptides, providing extended backbone interactions to enhance turnover. The kinetic data obtained from single substrate hydrolysis were analyzed using the standard Michaelis-Menten equation.

Consider bovine α-chymotrypsin (Bos taurus), for which the Km was determined as 500 ± 100 µM, the catalytic constant (kcat) came to 2.2 ± 0.2 s⁻¹ and the kcat/Km is 4400 ± 1000 M⁻¹ s⁻¹.

In general, Km refers to the concentration of substrate that gives half-maximal velocity. As a reminder, the kcat is the maximal rate divided by the concentration of active sites. What is called kcat/Km is the turnover number divided by the Michaelis constant.
